Test results as given in patent US20110262366A1.
No end group written: not given here.

Assays:
[1] = biological target: endothelial cell receptor on HAEC (human aortic endothelial cells); test: competition, 100 µM free TKPPR against 1% DPPE-GTKPPR microbubbles (competitor) on HAEC, static
[2] = biological target: endothelial cell receptor on HAEC (human aortic endothelial cells); test: competition, free TKPPR 100 µM (head prints 100 µmol) against 5% DPPE-GTKPPR microbubbles (competitor) on HAEC, static
[3] = biological target: endothelial cell receptor on HAEC (human aortic endothelial cells); test: competition, 500 µM free TKPPR against TKPPR-beads (competitor) on HAEC, static, n = 11
[4] = biological target: endothelial cell receptor on HAEC (human aortic endothelial cells); test: competition, 10 µM free TKPPR against 1% DPPE-GTKPPR microbubbles (competitor) on HAEC, static
[5] = biological target: endothelial cell receptor on HAEC (human aortic endothelial cells); test: competition, 25 µM free TKPPR against TKPPR-beads (competitor) on HAEC, static, n = 11
[6] = biological target: endothelial cell receptor on HAEC (human aortic endothelial cells); test: competition, 5 µM free TKPPR against 1% DPPE-GTKPPR microbubbles (competitor) on HAEC, static
[7] = biological target: endothelial cell receptor on HAEC (human aortic endothelial cells); test: competition, 10 µM free TKPPR against 1% BRU-292 microbubbles (competitor) on HAEC, static
[8] = biological target: endothelial cell receptor on HAEC (human aortic endothelial cells); test: competition, 10 µM free TKPPR against 1% BRU-114 microbubbles (competitor) on HAEC, static
[9] = biological target: endothelial cell receptor on HAEC (human aortic endothelial cells); test: competition, 50 µM free TKPPR against 1% BRU-292 microbubbles (competitor) on HAEC, static
[10] = biological target: endothelial cell receptor on HAEC (human aortic endothelial cells); test: competition, 100 µM free TKPPR against 1% BRU-114 microbubbles (competitor) on HAEC, static
[11] = biological target: endothelial cell receptor on HAEC (human aortic endothelial cells); test: competition, 50 µM free TKPPR against 1% BRU-114 microbubbles (competitor) on HAEC, static
[12] = biological target: endothelial cell receptor on HAEC (human aortic endothelial cells); test: competition, 10 µM free TKPPR against 5% BRU-114 microbubbles (competitor) on HAEC, static
[13] = biological target: endothelial cell receptor on HAEC (human aortic endothelial cells); test: competition, 100 µM free TKPPR against 5% BRU-114 microbubbles (competitor) on HAEC, static
[14] = biological target: endothelial cell receptor on HAEC (human aortic endothelial cells); test: competition, 100 µM free TKPPR against TKPPR-beads (competitor) on HAEC, static, n = 11
[15] = biological target: endothelial cell receptor on HAEC (human aortic endothelial cells); test: competition, 10 µM free TKPPR against 1% BRU-114 microbubbles (competitor) on HAEC, static; remark: listed apart in the source
[16] = biological target: endothelial cell receptor on HAEC (human aortic endothelial cells); test: as above; remark: listed apart in the source
[17] = biological target: endothelial cell receptor on HAEC (human aortic endothelial cells); test: competition, 25 µM free TKPPR against 1% BRU-114 microbubbles (competitor) on HAEC, static
[18] = biological target: endothelial cell receptor on HAEC (human aortic endothelial cells); test: competition, 50 µM free TKPPR against 1% BRU-114 microbubbles (competitor) on HAEC, static; remark: listed apart in the source
[19] = biological target: endothelial cell receptor on HAEC (human aortic endothelial cells); test: competition, 25 µM free TKPPR against 1% DPPE-GTKPPR microbubbles (competitor) on HAEC, static
VEGF receptors on HUVECs = test: competition with ^125I-VEGF on HUVECs
[20] = biological target: endothelial cell receptor on HAEC (human aortic endothelial cells); test: competition, 200 µM free TKPPR against 5% BRU-114 microbubbles (competitor) on HAEC, static
[21] = biological target: endothelial cell receptor on HAEC (human aortic endothelial cells); test: competition, 10 µM free TKPPR against 10% BRU-114 microbubbles (competitor) on HAEC, static
[22] = biological target: endothelial cell receptor on HAEC (human aortic endothelial cells); test: competition, 200 µM free TKPPR against 10% BRU-114 microbubbles (competitor) on HAEC, static
[23] = biological target: endothelial cell receptor on HAEC (human aortic endothelial cells); test: competition, 50 µM free TKPPR against TKPPR-beads (competitor) on HAEC, static, n = 11
[24] = biological target: endothelial cell receptor on RAEC (rabbit aortic endothelial cells); test: competition, 100 µM free TKPPR against 5% DPPE-GTKPPR microbubbles (competitor) on RAEC, static
[25] = biological target: endothelial cell receptor on HAEC (human aortic endothelial cells); test: competition, 100 µM free TKPPR against 10% BRU-114 microbubbles (competitor) on HAEC, static
[26] = biological target: endothelial cell receptor on HAEC (human aortic endothelial cells); test: competition, free TKPPR 10 µM (head prints 10 µmol) against 5% DPPE-GTKPPR microbubbles (competitor) on HAEC, static
[27] = biological target: endothelial cell receptor on HAEC (human aortic endothelial cells); test: competition, 200 µM free TKPPR against 1% BRU-114 microbubbles (competitor) on HAEC, static
[28] = biological target: endothelial cell receptor on HAEC (human aortic endothelial cells); test: competition, 5 µM free TKPPR against 1% BRU-114 microbubbles (competitor) on HAEC, static
[29] = biological target: endothelial cell receptor on HAEC (human aortic endothelial cells); test: competition, free TKPPR 10 µM (head prints 10 µmol) against 1% DPPE-GTKPPR microbubbles (competitor) on HAEC, static
[30] = biological target: endothelial cell receptor on HAEC (human aortic endothelial cells); test: competition, 2.5 µM free TKPPR against 1% BRU-114 microbubbles (competitor) on HAEC, static
[31] = biological target: endothelial cell receptor on HAEC (human aortic endothelial cells); test: competition, 25 µM free TKPPR against 1% BRU-114 microbubbles (competitor) on HAEC, static; remark: listed apart in the source
[32] = biological target: endothelial cell receptor on HAEC (human aortic endothelial cells); test: competition, 2.5 µM free TKPPR against 1% BRU-292 microbubbles (competitor) on HAEC, static

B1: TKPPR-OH (L-threonyl-L-lysyl-L-prolyl-L-prolyl-L-arginine) (peptide)
peptide: TKPPR-OH
[1]
  Average % Inhibition: 93.7%
[2]
  Bubbles Bound in presence of competitor: 62 bubbles
[3]
  % Inhibition: 70.6%
[4]
  Average % Inhibition: 79.6%
[5]
  % Inhibition: 50.7%
[6]
  Average % Inhibition: 45.7%
[7]
  Bubbles Bound in presence of competitor: 833 bubbles
[8]
  Bubbles Bound in presence of competitor: 10 bubbles
[9]
  Bubbles Bound in presence of competitor: 462 bubbles
[10]
  Bubbles Bound in presence of competitor: 17 bubbles
[11]
  Bubbles Bound in presence of competitor: 9 bubbles
[12]
  Bubbles Bound in presence of competitor: 1340 bubbles
[13]
  Bubbles Bound in presence of competitor: 12 bubbles
[14]
  % Inhibition: 62%
[15]
  Bubbles Bound in presence of competitor: 535 bubbles
[16]
  Bubbles Bound in presence of competitor: 528 bubbles
[17]
  Bubbles Bound in presence of competitor: 75 bubbles
[18]
  Bubbles Bound in presence of competitor: 5 bubbles
[19]
  Average % Inhibition: 82%
VEGF receptors on HUVECs
  IC50: 250 µM
[20]
  Bubbles Bound in presence of competitor: 13 bubbles
[21]
  Bubbles Bound in presence of competitor: 1090 bubbles
[22]
  Bubbles Bound in presence of competitor: 66 bubbles
[23]
  % Inhibition: 50.5%
[24]
  RAEC bubbles bound in presence of competitor: 21 bubbles
[25]
  Bubbles Bound in presence of competitor: 399 bubbles
[26]
  Bubbles Bound in presence of competitor: 865 bubbles
[27]
  Bubbles Bound in presence of competitor: 4 bubbles
[28]
  Bubbles Bound in presence of competitor: 790 bubbles
[29]
  Bubbles Bound in presence of competitor: 96 bubbles
[30]
  Bubbles Bound in presence of competitor: 1240 bubbles
[31]
  Bubbles Bound in presence of competitor: 106 bubbles
[32]
  Bubbles Bound in presence of competitor: 888 bubbles
